Results reported in article PMC7730851, “Expression of Somatostatin Receptor Subtypes (SSTR-1–SSTR-5) in Pediatric Hematological and Oncological Disorders” (Molecules, 2020).

Tested on: somatostatin receptors (SSTR)
Assay: Displacement of [125I]RC-160 binding from membranes of human pediatric tumors by unlabeled peptides
Experimental: Receptor binding affinities and concentrations of SSTRs in tumor membranes were also studied. […] Biochemical specifications and parameters crucial to characterize specific binding sites were also defined. […] Various peptides structurally related or unrelated to SST were used in these studies.
Displacement of [^125I] RC-160 as a radioligand by the unlabeled SST analogs as competitor was determined.
The radioiodinated derivatives of the RC-160 SST analogue were prepared by the chloramine-T method and purified by reverse phase high-performance liquid chromatography (RP-HPLC) as described previously. Somatostatin receptor-binding assays were performed as described previously with some minor modifications, using in vitro ligand competition assays based on the binding of [^125I] RC-160 as a radioligand to membrane fractions of the pediatric samples. This radioiodinated ligand has been well characterized and reported previously and has high affinity for SSTR-2 and SSTR-5 [4]. […] After incubation for 2 h, the binding reactions were stopped, and the bound ligand was separated and counted in a gamma counter. […] The final binding affinities were expressed as IC50 values. Protein concentration was determined by the method of Bradford using a Bio-Rad protein assay kit (Bio-Rad Laboratories, Inc.).

displacement of [125I]RC-160 binding (membrane fractions of human rhabdomyosarcoma specimen, Figure 3): did not displace
inhibition/displacement of the binding of radioiodinated RC-160 (pediatric tumor membranes, competitor 10^-12-10^-6 M, concentrations as high as 1 µM): none
B1: epidermal growth factor (EGF): unrelated peptide used as specificity control (protein, UniProt P01133 23-1207, looked up)
Pro-epidermal growth factor: PQHWSCPEGTLAGNGNSTCVGPAPFLIFSHGNSIFRIDTEGTNYEQLVVDAGVSVIMDFHYNEKRIYWVDLERQLLQRVFLNGSRQERVCNIEKNVSGMAINWINEEVIWSNQQEGIITVTDMKGNNSHILLSALKYPANVAVDPVERFIFWSSEVAGSLYRADLDGVGVKALLETSEKITAVSLDVLDKRLFWIQYNREGSNSLICSCDYDGGSVHISKHPTQHNLFAMSLFGDRIFYSTWKMKTIWIANKHTGKDMVRINLHSSFVPLGELKVVHPLAQPKAEDDTWEPEQKLCKLRKGNCSSTVCGQDLQSHLCMCAEGYALSRDRKYCEDVNECAFWNHGCTLGCKNTPGSYYCTCPVGFVLLPDGKRCHQLVSCPRNVSECSHDCVLTSEGPLCFCPEGSVLERDGKTCSGCSSPDNGGCSQLCVPLSPVSWECDCFPGYDLQLDEKSCAASGPQPFLLFANSQDIRHMHFDGTDYGTLLSQQMGMVYALDHDPVENKIYFAHTALKWIERANMDGSQRERLIEEGVDVPEGLAVDWIGRRFYWTDRGKSLIGRSDLNGKRSKIITKENISQPRGIAVHPMAKRLFWTDTGINPRIESSSLQGLGRLVIASSDLIWPSGITIDFLTDKLYWCDAKQSVIEMANLDGSKRRRLTQNDVGHPFAVAVFEDYVWFSDWAMPSVMRVNKRTGKDRVRLQGSMLKPSSLVVVHPLAKPGADPCLYQNGGCEHICKKRLGTAWCSCREGFMKASDGKTCLALDGHQLLAGGEVDLKNQVTPLDILSKTRVSEDNITESQHMLVAEIMVSDQDDCAPVGCSMYARCISEGEDATCQCLKGFAGDGKLCSDIDECEMGVPVCPPASSKCINTEGGYVCRCSEGYQGDGIHCLDIDECQLGEHSCGENASCTNTEGGYTCMCAGRLSEPGLICPDSTPPPHLREDDHHYSVRNSDSECPLSHDGYCLHDGVCMYIEALDKYACNCVVGYIGERCQYRDLKWWELRHAGHGQQQKVIVVAVCVVVLVMLLLLSLWGAHYYRTQKLLSKNPKNPYEESSRDVRSRRPADTEDGMSSCPQPWFVVIKEHQDLKNGGQPVAGEDGQAADGSMQPTSWRQEPQLCGMGTEQGCWIPVSSDKGSCPQVMERSFHMPSYGTQTLEGGVEKPHSLLSANPLWQQRALDPPHQMELTQ
modifications: Pro-epidermal growth factor
notes: unrelated peptide used as specificity control
